Tests used:
Assay in all cases: Kinase Profiling Assay
Format in all cases: biochemical
Conditions in all cases: 100 μM
AMPKα1 (h) = AMPKα1 (h) (Homo sapiens, UniProt Q13131)
Summary of the method: (§1)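 Kinase inhibition by MK2 inhibitory peptides was profiled radiometrically, with substrate phosphorylation from labeled ATP read by scintillation after capture on a charged filter. Values are relative to 100% activity and measured in duplicate.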

Met(Y1248C) (h) = Met(Y1248C) (h) (Homo sapiens, UniProt P08581, Y1230C)
Summary of the method: as §1

Fer (h) = Fer (h) (Homo sapiens, UniProt P16591)
Summary of the method: as §1

NEK6 (h) = target: T1, NEK6 (h) (Homo sapiens, UniProt Q9HC98)
T1 construct: purchased Millipore
Summary of the method: as §1

PKBα (h) = target: T2, PKBα (h) (Homo sapiens, UniProt P31749)
T2 construct: purchased Millipore
Summary of the method: as §1

CHK2(R145W) (h) = target: T3, CHK2(R145W) (h) (Homo sapiens, UniProt O96017, R145W)
T3 construct: purchased Millipore
Summary of the method: as §1

EGFR(L861Q) (h) = target: T4, EGFR(L861Q) (h) (Homo sapiens, UniProt P00533, L861Q)
T4 construct: purchased Millipore
Summary of the method: as §1

EphB2 (h) = target: T5, EphB2 (h) (Homo sapiens, UniProt P29323)
T5 sequence (P29323 19-1055): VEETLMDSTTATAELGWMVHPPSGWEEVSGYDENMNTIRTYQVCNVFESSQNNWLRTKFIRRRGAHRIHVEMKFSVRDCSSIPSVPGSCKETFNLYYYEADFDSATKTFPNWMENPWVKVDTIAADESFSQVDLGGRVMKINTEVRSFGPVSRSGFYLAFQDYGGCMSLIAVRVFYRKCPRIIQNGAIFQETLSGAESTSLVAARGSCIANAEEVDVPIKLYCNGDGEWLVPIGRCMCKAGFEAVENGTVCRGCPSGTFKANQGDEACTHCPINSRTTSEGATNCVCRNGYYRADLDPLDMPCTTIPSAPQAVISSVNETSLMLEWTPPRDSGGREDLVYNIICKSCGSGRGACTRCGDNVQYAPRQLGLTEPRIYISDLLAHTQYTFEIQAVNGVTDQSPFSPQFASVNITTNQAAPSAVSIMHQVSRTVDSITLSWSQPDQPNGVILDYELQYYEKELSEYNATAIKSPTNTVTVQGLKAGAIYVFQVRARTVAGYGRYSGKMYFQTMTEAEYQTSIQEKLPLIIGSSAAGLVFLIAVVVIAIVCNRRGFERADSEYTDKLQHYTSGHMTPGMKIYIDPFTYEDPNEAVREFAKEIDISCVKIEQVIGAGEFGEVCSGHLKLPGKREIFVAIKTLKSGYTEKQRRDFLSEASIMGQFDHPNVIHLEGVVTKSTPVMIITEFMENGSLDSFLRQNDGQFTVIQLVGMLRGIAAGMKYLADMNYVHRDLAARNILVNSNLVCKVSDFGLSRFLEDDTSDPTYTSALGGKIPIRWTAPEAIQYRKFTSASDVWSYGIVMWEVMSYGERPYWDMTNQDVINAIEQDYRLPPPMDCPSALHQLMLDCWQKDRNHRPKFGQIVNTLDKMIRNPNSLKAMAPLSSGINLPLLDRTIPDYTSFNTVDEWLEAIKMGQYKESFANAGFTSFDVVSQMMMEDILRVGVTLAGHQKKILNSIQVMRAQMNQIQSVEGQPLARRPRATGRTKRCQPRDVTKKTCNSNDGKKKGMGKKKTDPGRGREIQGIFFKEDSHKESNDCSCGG
Summary of the method: as §1

TAO3 (h) = target: T6, TAO3 (h) (Homo sapiens, UniProt Q9H2K8)
T6 sequence (Q9H2K8 1-898): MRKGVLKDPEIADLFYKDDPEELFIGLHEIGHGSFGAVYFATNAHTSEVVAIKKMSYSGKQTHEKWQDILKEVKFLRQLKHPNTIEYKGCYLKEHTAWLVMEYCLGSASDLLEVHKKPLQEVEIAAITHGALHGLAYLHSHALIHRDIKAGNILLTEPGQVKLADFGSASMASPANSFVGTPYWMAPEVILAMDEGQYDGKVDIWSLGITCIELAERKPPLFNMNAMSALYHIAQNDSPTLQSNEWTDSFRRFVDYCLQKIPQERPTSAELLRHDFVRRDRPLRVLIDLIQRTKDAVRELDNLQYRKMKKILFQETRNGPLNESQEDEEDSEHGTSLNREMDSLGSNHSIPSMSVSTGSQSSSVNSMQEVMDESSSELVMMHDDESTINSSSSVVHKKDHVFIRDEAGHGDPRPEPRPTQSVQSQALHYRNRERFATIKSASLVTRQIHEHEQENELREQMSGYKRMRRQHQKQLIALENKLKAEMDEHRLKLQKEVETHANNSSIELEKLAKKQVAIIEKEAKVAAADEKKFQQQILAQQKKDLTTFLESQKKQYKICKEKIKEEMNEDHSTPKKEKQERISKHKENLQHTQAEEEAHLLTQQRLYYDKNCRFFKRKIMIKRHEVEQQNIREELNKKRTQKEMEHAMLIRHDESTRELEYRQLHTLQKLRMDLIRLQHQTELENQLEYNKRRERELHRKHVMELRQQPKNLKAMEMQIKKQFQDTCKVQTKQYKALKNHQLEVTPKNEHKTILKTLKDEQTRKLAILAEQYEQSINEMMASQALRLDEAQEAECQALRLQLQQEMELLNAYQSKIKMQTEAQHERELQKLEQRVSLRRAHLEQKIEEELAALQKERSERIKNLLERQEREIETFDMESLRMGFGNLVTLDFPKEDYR
Summary of the method: as §1

Src(1-530) (h) = target: T7, Src(1-530) (h) (Homo sapiens, UniProt P12931)
T7 construct: Src(1-530) (h)
Summary of the method: as §1

FGFR2 (h) = FGFR2 (h) (Homo sapiens, UniProt P21802)
Summary of the method: as §1

PDGFRα (h) = target: T8, PDGFRα (h) (Homo sapiens, UniProt P16234)
T8 construct: purchased Millipore
Summary of the method: as §1

PKCη (h) = PKCη (h) (Homo sapiens, UniProt P24723)
Summary of the method: as §1

T2 sequence (P31749 whole entry): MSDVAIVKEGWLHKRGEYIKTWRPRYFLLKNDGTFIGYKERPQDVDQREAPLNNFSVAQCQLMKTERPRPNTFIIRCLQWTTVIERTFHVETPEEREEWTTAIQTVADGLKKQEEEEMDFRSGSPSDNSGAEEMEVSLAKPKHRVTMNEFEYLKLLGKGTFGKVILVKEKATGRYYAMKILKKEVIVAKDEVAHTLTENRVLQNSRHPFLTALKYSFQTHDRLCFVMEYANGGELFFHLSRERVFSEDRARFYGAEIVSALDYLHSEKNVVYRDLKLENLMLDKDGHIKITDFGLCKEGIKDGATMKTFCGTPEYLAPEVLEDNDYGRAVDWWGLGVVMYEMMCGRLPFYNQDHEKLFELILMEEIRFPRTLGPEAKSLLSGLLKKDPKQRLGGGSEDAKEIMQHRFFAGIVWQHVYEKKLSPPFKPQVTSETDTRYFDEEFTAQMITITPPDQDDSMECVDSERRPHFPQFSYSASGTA
T8 sequence (P16234 24-1089): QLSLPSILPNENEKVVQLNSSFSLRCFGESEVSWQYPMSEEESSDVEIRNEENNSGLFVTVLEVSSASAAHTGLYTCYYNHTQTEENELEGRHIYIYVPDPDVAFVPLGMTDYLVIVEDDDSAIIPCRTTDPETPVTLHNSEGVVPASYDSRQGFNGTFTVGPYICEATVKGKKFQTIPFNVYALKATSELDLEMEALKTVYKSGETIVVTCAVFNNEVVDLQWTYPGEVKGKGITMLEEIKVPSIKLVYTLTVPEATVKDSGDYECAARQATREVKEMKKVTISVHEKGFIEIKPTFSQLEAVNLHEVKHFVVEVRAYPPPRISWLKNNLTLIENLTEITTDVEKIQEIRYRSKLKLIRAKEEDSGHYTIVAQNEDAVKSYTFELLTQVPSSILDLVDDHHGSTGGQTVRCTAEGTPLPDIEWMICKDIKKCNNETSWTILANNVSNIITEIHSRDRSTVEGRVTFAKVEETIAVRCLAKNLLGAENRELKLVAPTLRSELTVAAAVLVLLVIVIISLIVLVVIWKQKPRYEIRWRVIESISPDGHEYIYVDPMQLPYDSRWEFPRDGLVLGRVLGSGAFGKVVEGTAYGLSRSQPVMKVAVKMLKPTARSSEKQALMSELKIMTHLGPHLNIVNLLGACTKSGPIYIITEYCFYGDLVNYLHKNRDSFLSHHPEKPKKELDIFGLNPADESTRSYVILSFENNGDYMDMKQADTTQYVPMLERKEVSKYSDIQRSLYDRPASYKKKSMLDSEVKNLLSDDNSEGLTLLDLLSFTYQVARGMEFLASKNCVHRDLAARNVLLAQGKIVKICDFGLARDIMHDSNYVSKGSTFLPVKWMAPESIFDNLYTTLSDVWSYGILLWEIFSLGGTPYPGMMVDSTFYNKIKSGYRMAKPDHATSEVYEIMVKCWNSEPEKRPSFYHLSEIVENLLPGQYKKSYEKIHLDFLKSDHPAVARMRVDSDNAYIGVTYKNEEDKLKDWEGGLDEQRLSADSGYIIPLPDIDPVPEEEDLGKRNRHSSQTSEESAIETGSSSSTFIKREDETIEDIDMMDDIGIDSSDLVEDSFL
Chain of Fer (h) (P16591 whole entry): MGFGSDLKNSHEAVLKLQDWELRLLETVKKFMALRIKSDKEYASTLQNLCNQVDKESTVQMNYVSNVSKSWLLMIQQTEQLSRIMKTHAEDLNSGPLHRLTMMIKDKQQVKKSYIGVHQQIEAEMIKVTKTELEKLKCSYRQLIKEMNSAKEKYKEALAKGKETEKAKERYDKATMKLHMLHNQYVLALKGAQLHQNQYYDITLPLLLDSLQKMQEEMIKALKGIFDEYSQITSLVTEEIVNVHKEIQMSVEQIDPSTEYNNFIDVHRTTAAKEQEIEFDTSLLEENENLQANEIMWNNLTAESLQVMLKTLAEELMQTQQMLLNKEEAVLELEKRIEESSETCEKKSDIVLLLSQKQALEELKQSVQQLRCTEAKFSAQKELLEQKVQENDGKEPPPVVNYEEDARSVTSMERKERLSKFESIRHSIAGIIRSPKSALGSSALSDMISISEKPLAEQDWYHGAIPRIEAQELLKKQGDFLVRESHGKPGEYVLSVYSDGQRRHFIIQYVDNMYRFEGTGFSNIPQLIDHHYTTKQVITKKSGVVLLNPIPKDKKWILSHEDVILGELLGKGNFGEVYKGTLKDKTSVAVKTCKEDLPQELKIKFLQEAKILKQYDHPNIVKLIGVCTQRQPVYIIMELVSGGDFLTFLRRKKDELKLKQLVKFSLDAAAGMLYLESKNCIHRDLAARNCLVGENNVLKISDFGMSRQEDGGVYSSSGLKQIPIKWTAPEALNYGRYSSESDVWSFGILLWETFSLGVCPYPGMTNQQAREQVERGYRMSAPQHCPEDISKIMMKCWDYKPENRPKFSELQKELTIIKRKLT
Chain of AMPKα1 (h) (Q13131 whole entry): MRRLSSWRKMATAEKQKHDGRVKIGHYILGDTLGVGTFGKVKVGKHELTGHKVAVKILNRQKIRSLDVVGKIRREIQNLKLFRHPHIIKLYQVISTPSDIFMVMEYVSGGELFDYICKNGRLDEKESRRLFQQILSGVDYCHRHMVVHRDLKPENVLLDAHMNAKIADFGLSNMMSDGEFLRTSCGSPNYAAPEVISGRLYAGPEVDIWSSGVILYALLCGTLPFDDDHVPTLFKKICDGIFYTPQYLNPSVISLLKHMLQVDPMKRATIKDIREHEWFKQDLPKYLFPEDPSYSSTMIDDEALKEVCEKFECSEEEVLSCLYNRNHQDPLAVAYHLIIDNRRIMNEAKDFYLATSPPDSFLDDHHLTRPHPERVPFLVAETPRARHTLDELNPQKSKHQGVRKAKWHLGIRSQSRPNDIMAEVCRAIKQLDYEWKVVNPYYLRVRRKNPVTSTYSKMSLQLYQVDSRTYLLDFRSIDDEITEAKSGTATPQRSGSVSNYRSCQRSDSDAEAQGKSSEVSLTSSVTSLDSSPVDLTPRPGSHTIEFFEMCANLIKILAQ
Chain of AMPKα1 (h) (Q9Y478 whole entry partner): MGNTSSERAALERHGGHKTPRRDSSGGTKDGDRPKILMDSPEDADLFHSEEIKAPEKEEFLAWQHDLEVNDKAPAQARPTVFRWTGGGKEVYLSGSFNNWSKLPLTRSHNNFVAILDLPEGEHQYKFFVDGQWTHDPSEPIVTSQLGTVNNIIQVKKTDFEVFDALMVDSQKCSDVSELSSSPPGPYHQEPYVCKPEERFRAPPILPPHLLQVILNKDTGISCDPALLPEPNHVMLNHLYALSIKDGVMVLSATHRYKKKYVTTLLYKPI
Chain of AMPKα1 (h) (P54619 whole entry partner): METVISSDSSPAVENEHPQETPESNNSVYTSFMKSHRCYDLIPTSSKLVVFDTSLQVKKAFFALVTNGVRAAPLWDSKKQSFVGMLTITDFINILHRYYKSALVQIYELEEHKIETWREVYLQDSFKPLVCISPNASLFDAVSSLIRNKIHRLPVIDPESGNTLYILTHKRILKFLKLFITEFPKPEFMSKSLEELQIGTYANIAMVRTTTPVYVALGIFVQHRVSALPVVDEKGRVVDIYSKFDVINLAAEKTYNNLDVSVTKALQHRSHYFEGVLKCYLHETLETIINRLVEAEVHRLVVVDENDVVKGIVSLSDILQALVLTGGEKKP
Chain of PKCη (h) (P24723 whole entry): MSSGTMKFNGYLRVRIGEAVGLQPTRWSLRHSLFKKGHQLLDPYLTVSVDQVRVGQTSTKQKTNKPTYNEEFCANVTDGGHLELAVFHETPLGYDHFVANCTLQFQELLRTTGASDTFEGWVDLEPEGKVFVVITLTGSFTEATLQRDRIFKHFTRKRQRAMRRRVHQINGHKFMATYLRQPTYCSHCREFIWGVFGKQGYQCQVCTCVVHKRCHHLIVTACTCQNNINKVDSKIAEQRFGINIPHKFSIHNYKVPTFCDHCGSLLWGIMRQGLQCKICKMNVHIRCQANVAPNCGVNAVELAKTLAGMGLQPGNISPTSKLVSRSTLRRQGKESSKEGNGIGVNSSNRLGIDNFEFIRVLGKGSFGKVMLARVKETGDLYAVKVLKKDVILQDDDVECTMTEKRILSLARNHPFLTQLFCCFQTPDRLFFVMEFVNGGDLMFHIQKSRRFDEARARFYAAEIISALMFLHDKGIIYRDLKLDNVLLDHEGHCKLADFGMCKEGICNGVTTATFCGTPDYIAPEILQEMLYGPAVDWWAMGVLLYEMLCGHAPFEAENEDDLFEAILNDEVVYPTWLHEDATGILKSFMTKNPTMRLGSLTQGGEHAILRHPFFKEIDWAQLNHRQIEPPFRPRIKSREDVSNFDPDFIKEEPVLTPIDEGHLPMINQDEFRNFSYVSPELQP
T3 sequence (O96017 whole entry R145W): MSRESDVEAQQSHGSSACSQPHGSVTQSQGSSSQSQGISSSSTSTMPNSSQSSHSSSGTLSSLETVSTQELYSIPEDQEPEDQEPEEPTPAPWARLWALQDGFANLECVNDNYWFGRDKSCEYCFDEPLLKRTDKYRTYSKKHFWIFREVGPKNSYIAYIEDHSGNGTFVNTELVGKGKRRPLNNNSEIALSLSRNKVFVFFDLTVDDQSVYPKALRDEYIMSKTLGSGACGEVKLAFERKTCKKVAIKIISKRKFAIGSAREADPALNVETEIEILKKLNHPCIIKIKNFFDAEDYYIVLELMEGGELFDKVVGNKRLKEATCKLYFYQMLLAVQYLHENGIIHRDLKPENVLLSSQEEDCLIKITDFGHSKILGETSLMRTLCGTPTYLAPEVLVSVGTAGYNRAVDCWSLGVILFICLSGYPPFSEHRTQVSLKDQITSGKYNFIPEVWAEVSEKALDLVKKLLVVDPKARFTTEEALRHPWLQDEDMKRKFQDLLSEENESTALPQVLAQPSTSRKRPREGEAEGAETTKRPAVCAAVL

Sequence	% activity (AMPKα1 (h))	% activity (Met(Y1248C) (h))	% activity (Fer (h))	% activity (NEK6 (h))	% activity (PKBα (h))	% activity (CHK2(R145W) (h))	% activity (EGFR(L861Q) (h))	% activity (EphB2 (h))	% activity (TAO3 (h))	% activity (Src(1-530) (h))	% activity (FGFR2 (h))	% activity (PDGFRα (h))	% activity (PKCη (h))
FAKLAARLYRKALARQLGVAA [MMI-0300]	71%	84%	130%	82%	57%	33%	25%	18%	77%	23%	14%	65%	
HRRIKAWLKKIKALARQLGVAA (Mammalian) [MMI-0500]	35%	73%	196%	49%	30%	3%	15%	70%	12%	21%	12%	40%	45%
KAFAKLAARLYRKALARQLGVAA [MMI-0400]	87%	36%	108%	85%	67%	31%	22%	22%	67%	19%	18%	40%	98%
YARAAARQARAKALNRQLGVA (Mammalian) [MMI-0200]	108%	141%	101%	98%	110%	81%	74%	128%		75%	73%	108%	101%
